For the experiment, the target named is recombinant human ANGPT2 (full-length ANGPT2-His protein, R&D Systems) (human) (UniProt O15123). The experiment in a line: cellular FACS IGF-1R-ANGPT2 bridging assay on I24 cells with purified Bispecific VL-VH/CL-CH1 exchange mix and 2 µg/mL hANGPT2; isotype control in place of <Ang-2>mIgG1-Biotin, SA-PE (FL2-H).
UniProt O15123, sequence (O15123 19-496 limits assumed): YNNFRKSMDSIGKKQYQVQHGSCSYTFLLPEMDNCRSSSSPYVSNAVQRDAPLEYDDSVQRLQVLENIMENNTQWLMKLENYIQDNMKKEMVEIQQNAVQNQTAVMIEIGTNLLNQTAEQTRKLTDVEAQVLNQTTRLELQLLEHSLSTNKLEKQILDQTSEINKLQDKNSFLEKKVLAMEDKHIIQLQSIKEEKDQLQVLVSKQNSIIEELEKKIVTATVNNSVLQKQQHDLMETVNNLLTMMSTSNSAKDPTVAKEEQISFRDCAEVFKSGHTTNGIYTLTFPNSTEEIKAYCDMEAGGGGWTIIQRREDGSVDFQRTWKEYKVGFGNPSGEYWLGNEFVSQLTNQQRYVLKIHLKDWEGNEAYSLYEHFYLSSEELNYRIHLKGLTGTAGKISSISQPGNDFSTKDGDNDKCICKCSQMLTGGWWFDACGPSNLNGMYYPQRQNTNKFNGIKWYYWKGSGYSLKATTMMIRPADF

Turning to mIgG1-Biotin-Isotype control (antibody), the Mean was determined as 8.7.
